# Article PMC9010756
# Biological target: GST-CGN(1–70) (GST-tagged cCGN, 1–70 amino acids) (canis (dog))
# Assay: pull-down
# Chain of GST-CGN(1–70) (GST-tagged cCGN, 1–70 amino acids) (canis (dog)) (A7YH32 1-70): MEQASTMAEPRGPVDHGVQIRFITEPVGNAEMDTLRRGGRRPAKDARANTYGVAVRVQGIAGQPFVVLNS
substance,measurement,value
GFP-hZO-1-Cter (1619–1748) (from UniProt Q07157 1619-1748) (domain or fragment),fold stronger binding than larger fragments,> 4 fold
